Tested on: Escherichia coli TOP10
Assay: shrunken log2 fold change of peptide-encoding DNA abundance (4.5 h post-induction vs induction); higher = less antimicrobial activity (less host growth inhibition)
Conditions: time post-induction: 4.5 h; library: site-saturation at positions 5, 18, 19, 20
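Note: peptides expressed intracellularly from a pBAD plasmid library in pooled LB shake-flask culture, induced with 0.3% L-arabinose, DNA abundance read by NGS, three biological replicates, DESeq2 with apeglm shrinkage.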

Sequence | shrunken log2 fold change
RRIRCRPPRLPRPRPRPYYHPRP | -1.28
RRIRDRPPRLPRPRPRPAAEPRP | 1.25
RRIRDRPPRLPRPRPRPAALPRP | 0.488
RRIRDRPPRLPRPRPRPAANPRP | 0.273
RRIRDRPPRLPRPRPRPAECPRP | 0.232
RRIRDRPPRLPRPRPRPAESPRP | -0.0371
RRIRDRPPRLPRPRPRPAFHPRP | -0.193
RRIRDRPPRLPRPRPRPAGVPRP | 0.25
RRIRDRPPRLPRPRPRPAKPPRP | 0.419
RRIRDRPPRLPRPRPRPALEPRP | 0.659
RRIRDRPPRLPRPRPRPALMPRP | 0.333
RRIRDRPPRLPRPRPRPANNPRP | -0.218
RRIRDRPPRLPRPRPRPANTPRP | -0.0443
RRIRDRPPRLPRPRPRPAPGPRP | 0.699
RRIRDRPPRLPRPRPRPAQEPRP | 0.185
RRIRDRPPRLPRPRPRPAREPRP | 1.06
RRIRDRPPRLPRPRPRPASPPRP | 0.384
RRIRDRPPRLPRPRPRPASWPRP | 0.805
RRIRDRPPRLPRPRPRPAWEPRP | 1.07
RRIRDRPPRLPRPRPRPCFCPRP | -0.054
RRIRDRPPRLPRPRPRPCFDPRP | 0.581
RRIRDRPPRLPRPRPRPCFVPRP | 0.0784
RRIRDRPPRLPRPRPRPCGHPRP | 0.232
RRIRDRPPRLPRPRPRPCGQPRP | -0.0223
RRIRDRPPRLPRPRPRPCHMPRP | 0.00148

Sequence | shrunken log2 fold change
RRIRDRPPRLPRPRPRPCLHPRP | 0.0931
RRIRDRPPRLPRPRPRPCLKPRP | -0.000218
RRIRDRPPRLPRPRPRPCLRPRP | -0.188
RRIRDRPPRLPRPRPRPCMLPRP | 1.36
RRIRDRPPRLPRPRPRPCMVPRP | 0.0359
RRIRDRPPRLPRPRPRPCPGPRP | -0.0964
RRIRDRPPRLPRPRPRPCQAPRP | -0.0133
RRIRDRPPRLPRPRPRPCQIPRP | 0.0759
RRIRDRPPRLPRPRPRPCQPPRP | -0.144
RRIRDRPPRLPRPRPRPCQWPRP | -0.134
RRIRDRPPRLPRPRPRPCRFPRP | -0.00146
RRIRDRPPRLPRPRPRPCTEPRP | 0.373
RRIRDRPPRLPRPRPRPCTHPRP | -0.0766
RRIRDRPPRLPRPRPRPCTNPRP | -0.0463
RRIRDRPPRLPRPRPRPCVQPRP | 0.239
RRIRDRPPRLPRPRPRPCYPPRP | -0.0894
RRIRDRPPRLPRPRPRPDDHPRP | 0.023
RRIRDRPPRLPRPRPRPDDNPRP | 0.153
RRIRDRPPRLPRPRPRPDDPPRP | -0.00152
RRIRDRPPRLPRPRPRPDGGPRP | -0.00182
RRIRDRPPRLPRPRPRPDGMPRP | 0.232
RRIRDRPPRLPRPRPRPDHNPRP | 0.0311
RRIRDRPPRLPRPRPRPDIEPRP | 0.105
RRIRDRPPRLPRPRPRPDIVPRP | 0.0868
RRIRDRPPRLPRPRPRPDKQPRP | -0.129

Sequence | shrunken log2 fold change
RRIRDRPPRLPRPRPRPDMQPRP | 1.13
RRIRDRPPRLPRPRPRPDMYPRP | 0.214
RRIRDRPPRLPRPRPRPDNSPRP | 0.0428
RRIRDRPPRLPRPRPRPDPHPRP | 0.0248
RRIRDRPPRLPRPRPRPDTPPRP | 0.0945
RRIRDRPPRLPRPRPRPDTRPRP | 0.203
RRIRDRPPRLPRPRPRPDTWPRP | 0.335
RRIRDRPPRLPRPRPRPDWHPRP | 0.0912
RRIRDRPPRLPRPRPRPEALPRP | 1.21
RRIRDRPPRLPRPRPRPEATPRP | 1.98
RRIRDRPPRLPRPRPRPECTPRP | 1.05
RRIRDRPPRLPRPRPRPEDWPRP | 1.45
RRIRDRPPRLPRPRPRPEFEPRP | 0.824
RRIRDRPPRLPRPRPRPEFPPRP | -0.00168
RRIRDRPPRLPRPRPRPEIWPRP | 0.162
RRIRDRPPRLPRPRPRPEKIPRP | 0.652
RRIRDRPPRLPRPRPRPEKLPRP | 0.19
RRIRDRPPRLPRPRPRPELFPRP | 0.184
RRIRDRPPRLPRPRPRPELHPRP | 0.319
RRIRDRPPRLPRPRPRPEMRPRP | 1.29
RRIRDRPPRLPRPRPRPENFPRP | 0.043
RRIRDRPPRLPRPRPRPENIPRP | -0.172
RRIRDRPPRLPRPRPRPERQPRP | -0.00783
RRIRDRPPRLPRPRPRPESVPRP | 0.0047
RRIRDRPPRLPRPRPRPETGPRP | -0.0106

Sequence | shrunken log2 fold change
RRIRDRPPRLPRPRPRPEYFPRP | 0.0472
RRIRDRPPRLPRPRPRPEYHPRP | -0.000207
RRIRDRPPRLPRPRPRPEYMPRP | -0.00941
RRIRDRPPRLPRPRPRPFCEPRP | 0.159
RRIRDRPPRLPRPRPRPFDAPRP | -0.13
RRIRDRPPRLPRPRPRPFDFPRP | 0.122
RRIRDRPPRLPRPRPRPFELPRP | -0.0281
RRIRDRPPRLPRPRPRPFFAPRP | 0.412
RRIRDRPPRLPRPRPRPFFNPRP | -0.156
RRIRDRPPRLPRPRPRPFHPPRP | -0.106
RRIRDRPPRLPRPRPRPFIAPRP | -0.237
RRIRDRPPRLPRPRPRPFIGPRP | -0.158
RRIRDRPPRLPRPRPRPFKGPRP | -0.617
RRIRDRPPRLPRPRPRPFKVPRP | -0.0463
RRIRDRPPRLPRPRPRPFMQPRP | 0.0183
RRIRDRPPRLPRPRPRPFNMPRP | -0.186
RRIRDRPPRLPRPRPRPFNQPRP | -0.733
RRIRDRPPRLPRPRPRPFPEPRP | -0.144
RRIRDRPPRLPRPRPRPFSTPRP | -0.0877
RRIRDRPPRLPRPRPRPFTAPRP | -0.128
RRIRDRPPRLPRPRPRPFTTPRP | -0.132
RRIRDRPPRLPRPRPRPFWWPRP | 0.641
RRIRDRPPRLPRPRPRPFYQPRP | -0.276
RRIRDRPPRLPRPRPRPGADPRP | 0.655
RRIRDRPPRLPRPRPRPGAFPRP | 0.357

Sequence | shrunken log2 fold change
RRIRDRPPRLPRPRPRPGDDPRP | 0.636
RRIRDRPPRLPRPRPRPGENPRP | -0.00211
RRIRDRPPRLPRPRPRPGFAPRP | 0.992
RRIRDRPPRLPRPRPRPGGCPRP | 0.687
RRIRDRPPRLPRPRPRPGHCPRP | -0.0141
RRIRDRPPRLPRPRPRPGLSPRP | 0.241
RRIRDRPPRLPRPRPRPGMEPRP | 0.784
RRIRDRPPRLPRPRPRPGMLPRP | -0.0263
RRIRDRPPRLPRPRPRPGMPPRP | -0.221
RRIRDRPPRLPRPRPRPGNKPRP | -0.0705
RRIRDRPPRLPRPRPRPGPVPRP | 0.545
RRIRDRPPRLPRPRPRPGQIPRP | 0.0221
RRIRDRPPRLPRPRPRPGQPPRP | -0.181
RRIRDRPPRLPRPRPRPGQSPRP | 0.116
RRIRDRPPRLPRPRPRPGTVPRP | 0.118
RRIRDRPPRLPRPRPRPGVHPRP | -0.0373
RRIRDRPPRLPRPRPRPGVPPRP | 0.000778
RRIRDRPPRLPRPRPRPGWRPRP | 0.832
RRIRDRPPRLPRPRPRPGYEPRP | -0.0119
RRIRDRPPRLPRPRPRPGYLPRP | -0.394
RRIRDRPPRLPRPRPRPGYSPRP | -0.591
RRIRDRPPRLPRPRPRPHCAPRP | 0.143
RRIRDRPPRLPRPRPRPHEAPRP | 0.151
RRIRDRPPRLPRPRPRPHFRPRP | -0.121
RRIRDRPPRLPRPRPRPHHDPRP | -0.336

Sequence | shrunken log2 fold change
RRIRDRPPRLPRPRPRPHHFPRP | -0.49
RRIRDRPPRLPRPRPRPHHHPRP | -0.505
RRIRDRPPRLPRPRPRPHHNPRP | -0.562
RRIRDRPPRLPRPRPRPHHRPRP | -0.277
RRIRDRPPRLPRPRPRPHKQPRP | 0.00319
RRIRDRPPRLPRPRPRPHLGPRP | 0.0158
RRIRDRPPRLPRPRPRPHLWPRP | 0.611
RRIRDRPPRLPRPRPRPHMDPRP | 0.0662
RRIRDRPPRLPRPRPRPHPHPRP | -0.0722
RRIRDRPPRLPRPRPRPHQNPRP | -0.303
RRIRDRPPRLPRPRPRPHSEPRP | 0.00449
RRIRDRPPRLPRPRPRPHTCPRP | -0.0522
RRIRDRPPRLPRPRPRPHVKPRP | -0.205
RRIRDRPPRLPRPRPRPHVQPRP | -0.0912
RRIRDRPPRLPRPRPRPHWPPRP | 0.197
RRIRDRPPRLPRPRPRPHYFPRP | -0.119
RRIRDRPPRLPRPRPRPIDMPRP | -0.185
RRIRDRPPRLPRPRPRPIEIPRP | -0.298
RRIRDRPPRLPRPRPRPIEYPRP | -0.029
RRIRDRPPRLPRPRPRPIGHPRP | 0.012
RRIRDRPPRLPRPRPRPIHCPRP | -0.135
RRIRDRPPRLPRPRPRPIHFPRP | -0.0728
RRIRDRPPRLPRPRPRPIHYPRP | -0.0149
RRIRDRPPRLPRPRPRPIICPRP | -0.0435
RRIRDRPPRLPRPRPRPIIWPRP | 0.156
